Results published in patent US20250262210A1 (TRUSTEES OF COLUMBIA UNIVERSITY IN THE CITY OF NEW YORK, published 2025).

Key:
Test in all cases: IP/MS, LZTR1 R810W-FLAG, U87
KIAA1217 = KIAA1217 (human, UniProt Q5T5P2 1-1943, limits assumed)
Summary of the method: (§1)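 Read-out: spectral counts from LC-MS/MS (Orbitrap Fusion) after MaxQuant identification. Variable modifications were Met oxidation, protein N-terminal acetylation and N/Q deamidation.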

SKIV2L = SKIV2L (human, UniProt Q15477 1-1246)
Summary of the method: as §1

RALGAPB = molecular target: T1, RALGAPB (human, UniProt Q86X10 1-1494, limits assumed)
T1 sequence (looked up): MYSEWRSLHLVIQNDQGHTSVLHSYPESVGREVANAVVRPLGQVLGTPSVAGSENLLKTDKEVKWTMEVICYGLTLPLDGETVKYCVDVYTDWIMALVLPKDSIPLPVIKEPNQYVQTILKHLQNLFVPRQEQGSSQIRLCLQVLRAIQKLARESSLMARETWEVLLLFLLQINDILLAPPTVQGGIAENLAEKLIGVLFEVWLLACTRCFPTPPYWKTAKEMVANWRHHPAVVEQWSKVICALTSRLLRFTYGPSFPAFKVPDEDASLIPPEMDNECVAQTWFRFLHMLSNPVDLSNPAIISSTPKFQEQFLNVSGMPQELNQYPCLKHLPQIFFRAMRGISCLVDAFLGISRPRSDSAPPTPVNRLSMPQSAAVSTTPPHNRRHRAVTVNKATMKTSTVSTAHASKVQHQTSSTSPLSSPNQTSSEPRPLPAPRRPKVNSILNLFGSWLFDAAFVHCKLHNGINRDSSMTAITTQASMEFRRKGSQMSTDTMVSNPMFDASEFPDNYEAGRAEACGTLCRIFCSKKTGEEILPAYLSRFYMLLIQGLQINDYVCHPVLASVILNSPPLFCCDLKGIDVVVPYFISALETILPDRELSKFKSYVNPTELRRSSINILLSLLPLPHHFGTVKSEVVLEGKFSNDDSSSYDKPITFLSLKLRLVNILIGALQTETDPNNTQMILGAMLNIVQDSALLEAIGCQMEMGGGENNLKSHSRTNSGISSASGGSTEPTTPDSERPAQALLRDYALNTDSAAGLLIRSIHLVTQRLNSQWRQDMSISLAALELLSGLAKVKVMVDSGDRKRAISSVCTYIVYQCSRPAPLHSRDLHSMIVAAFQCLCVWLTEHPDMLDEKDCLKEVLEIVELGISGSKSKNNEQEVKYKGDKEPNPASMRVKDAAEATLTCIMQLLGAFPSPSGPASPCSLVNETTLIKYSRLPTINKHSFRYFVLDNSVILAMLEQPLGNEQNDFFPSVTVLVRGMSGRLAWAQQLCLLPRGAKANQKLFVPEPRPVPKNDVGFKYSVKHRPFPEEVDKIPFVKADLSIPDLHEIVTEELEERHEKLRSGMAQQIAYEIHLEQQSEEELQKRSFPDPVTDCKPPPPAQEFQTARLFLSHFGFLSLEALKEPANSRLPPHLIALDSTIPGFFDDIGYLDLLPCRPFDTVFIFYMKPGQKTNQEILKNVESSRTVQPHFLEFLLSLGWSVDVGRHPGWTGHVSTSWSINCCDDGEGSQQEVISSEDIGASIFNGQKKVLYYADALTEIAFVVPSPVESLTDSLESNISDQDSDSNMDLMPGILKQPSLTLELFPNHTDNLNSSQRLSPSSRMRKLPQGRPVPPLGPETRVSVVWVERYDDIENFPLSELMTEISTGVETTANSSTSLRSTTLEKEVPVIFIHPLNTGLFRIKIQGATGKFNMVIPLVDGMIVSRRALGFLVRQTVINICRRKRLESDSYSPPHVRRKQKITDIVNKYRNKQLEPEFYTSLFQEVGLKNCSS
Summary of the method: as §1

Measured: binding result

SKIV2L, sequence (Q15477 whole entry): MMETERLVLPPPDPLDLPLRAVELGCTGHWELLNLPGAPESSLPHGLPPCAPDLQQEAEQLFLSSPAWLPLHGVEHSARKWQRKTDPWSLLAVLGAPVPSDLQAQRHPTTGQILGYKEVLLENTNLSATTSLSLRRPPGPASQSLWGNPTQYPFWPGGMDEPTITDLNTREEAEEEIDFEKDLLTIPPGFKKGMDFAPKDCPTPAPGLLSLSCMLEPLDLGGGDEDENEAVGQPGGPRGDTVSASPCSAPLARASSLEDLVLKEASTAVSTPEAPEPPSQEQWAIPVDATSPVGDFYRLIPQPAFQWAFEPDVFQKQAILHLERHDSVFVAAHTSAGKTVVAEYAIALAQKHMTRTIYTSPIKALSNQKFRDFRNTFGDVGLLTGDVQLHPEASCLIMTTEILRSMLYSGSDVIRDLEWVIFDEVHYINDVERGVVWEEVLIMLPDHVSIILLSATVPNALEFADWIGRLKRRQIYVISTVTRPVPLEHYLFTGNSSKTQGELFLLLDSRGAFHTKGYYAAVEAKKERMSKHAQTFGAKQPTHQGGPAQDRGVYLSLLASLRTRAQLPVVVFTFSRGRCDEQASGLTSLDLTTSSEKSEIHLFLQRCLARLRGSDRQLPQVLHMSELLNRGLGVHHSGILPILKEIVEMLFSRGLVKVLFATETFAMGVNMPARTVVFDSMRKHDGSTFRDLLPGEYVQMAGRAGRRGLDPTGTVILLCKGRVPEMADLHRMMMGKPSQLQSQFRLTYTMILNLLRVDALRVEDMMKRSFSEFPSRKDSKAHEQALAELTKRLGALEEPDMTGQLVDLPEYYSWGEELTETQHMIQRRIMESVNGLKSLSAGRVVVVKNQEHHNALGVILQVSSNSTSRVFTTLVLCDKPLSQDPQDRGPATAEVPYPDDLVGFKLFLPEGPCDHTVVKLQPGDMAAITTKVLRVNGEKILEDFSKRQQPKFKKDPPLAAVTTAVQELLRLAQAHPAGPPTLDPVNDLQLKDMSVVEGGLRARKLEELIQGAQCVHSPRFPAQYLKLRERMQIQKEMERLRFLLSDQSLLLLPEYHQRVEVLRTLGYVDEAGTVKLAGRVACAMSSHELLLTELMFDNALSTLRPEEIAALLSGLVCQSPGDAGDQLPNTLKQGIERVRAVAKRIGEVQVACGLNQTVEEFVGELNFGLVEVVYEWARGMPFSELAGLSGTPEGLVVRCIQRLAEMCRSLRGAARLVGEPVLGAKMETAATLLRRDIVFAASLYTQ
KIAA1217, sequence (Q5T5P2 whole entry, the tested form may be a part): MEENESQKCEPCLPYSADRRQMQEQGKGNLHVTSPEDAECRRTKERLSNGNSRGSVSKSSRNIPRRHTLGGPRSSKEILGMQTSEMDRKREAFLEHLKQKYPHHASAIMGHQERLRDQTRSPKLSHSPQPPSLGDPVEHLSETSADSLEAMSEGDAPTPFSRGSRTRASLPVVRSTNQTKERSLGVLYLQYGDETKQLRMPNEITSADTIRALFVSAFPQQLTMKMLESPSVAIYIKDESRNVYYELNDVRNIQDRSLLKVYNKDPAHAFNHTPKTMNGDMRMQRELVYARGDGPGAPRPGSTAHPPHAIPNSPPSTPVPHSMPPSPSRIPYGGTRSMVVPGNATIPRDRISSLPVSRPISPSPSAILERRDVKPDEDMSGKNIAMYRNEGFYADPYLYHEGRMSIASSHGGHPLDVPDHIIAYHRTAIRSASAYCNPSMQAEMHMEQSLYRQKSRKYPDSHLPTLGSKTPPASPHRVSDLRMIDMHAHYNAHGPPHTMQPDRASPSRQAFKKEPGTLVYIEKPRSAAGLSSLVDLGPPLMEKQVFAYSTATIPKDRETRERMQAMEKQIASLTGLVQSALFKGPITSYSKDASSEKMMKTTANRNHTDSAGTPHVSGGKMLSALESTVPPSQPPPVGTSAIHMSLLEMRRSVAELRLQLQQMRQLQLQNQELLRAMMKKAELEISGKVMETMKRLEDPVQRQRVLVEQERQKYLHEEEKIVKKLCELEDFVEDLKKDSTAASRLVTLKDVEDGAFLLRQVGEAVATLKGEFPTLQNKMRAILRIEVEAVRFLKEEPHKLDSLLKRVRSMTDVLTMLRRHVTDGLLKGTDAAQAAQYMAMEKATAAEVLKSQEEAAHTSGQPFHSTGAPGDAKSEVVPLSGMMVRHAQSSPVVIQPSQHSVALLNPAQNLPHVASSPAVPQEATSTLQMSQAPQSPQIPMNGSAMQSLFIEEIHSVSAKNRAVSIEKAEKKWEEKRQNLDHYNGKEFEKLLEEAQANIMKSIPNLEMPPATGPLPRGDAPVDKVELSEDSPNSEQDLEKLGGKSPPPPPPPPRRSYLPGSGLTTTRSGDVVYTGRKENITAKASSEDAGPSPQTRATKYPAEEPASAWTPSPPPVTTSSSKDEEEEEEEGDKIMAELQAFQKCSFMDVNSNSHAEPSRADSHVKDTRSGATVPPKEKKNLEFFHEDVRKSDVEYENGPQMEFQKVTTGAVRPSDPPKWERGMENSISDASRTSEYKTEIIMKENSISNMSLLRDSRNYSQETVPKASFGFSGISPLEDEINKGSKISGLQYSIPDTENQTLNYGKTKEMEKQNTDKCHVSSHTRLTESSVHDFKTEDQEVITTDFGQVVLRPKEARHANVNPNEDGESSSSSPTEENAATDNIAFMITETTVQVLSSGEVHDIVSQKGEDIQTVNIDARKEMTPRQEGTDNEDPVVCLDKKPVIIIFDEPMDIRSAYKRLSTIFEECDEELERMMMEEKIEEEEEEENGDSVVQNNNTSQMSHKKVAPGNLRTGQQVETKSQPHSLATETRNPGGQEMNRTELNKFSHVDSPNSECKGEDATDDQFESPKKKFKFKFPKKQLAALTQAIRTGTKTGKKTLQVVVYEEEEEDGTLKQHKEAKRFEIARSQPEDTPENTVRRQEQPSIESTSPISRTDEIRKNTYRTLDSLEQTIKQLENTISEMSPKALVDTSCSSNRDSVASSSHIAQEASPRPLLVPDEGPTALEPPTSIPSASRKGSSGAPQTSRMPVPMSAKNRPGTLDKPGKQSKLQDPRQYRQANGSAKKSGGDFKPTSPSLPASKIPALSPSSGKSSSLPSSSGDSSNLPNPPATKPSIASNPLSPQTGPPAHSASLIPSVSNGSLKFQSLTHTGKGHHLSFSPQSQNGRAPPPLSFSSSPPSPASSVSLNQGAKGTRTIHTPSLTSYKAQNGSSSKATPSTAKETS

B1: LZTR1 R810W-FLAG (other, human, UniProt Q8N653 1-840, looked up)
chain: MAGPGSTGGQIGAAALAGGARSKVAPSVDFDHSCSDSVEYLTLNFGPFETVHRWRRLPPCDEFVGARRSKHTVVAYKDAIYVFGGDNGKTMLNDLLRFDVKDCSWCRAFTTGTPPAPRYHHSAVVYGSSMFVFGGYTGDIYSNSNLKNKNDLFEYKFATGQWTEWKIEGRLPVARSAHGATVYSDKLWIFAGYDGNARLNDMWTIGLQDRELTCWEEVAQSGEIPPSCCNFPVAVCRDKMFVFSGQSGAKITNNLFQFEFKDKTWTRIPTEHLLRGSPPPPQRRYGHTMVAFDRHLYVFGGAADNTLPNELHCYDVDFQTWEVVQPSSDSEVGGAEVPERACASEEVPTLTYEERVGFKKSRDVFGLDFGTTSAKQPTQPASELPSGRLFHAAAVISDAMYIFGGTVDNNIRSGEMYRFQFSCYPKCTLHEDYGRLWESRQFCDVEFVLGEKEECVQGHVAIVTARSRWLRRKITQARERLAQKLEQEAAPVPREAPGVAAGGARPPLLHVAIREAEARPFEVLMQFLYTDKIKYPRKGHVEDVLLIMDVYKLALSFQLCRLEQLCRQYIEASVDLQNVLVVCESAARLQLSQLKEHCLNFVVKESHFNQVIMMKEFERLSSPLIVEIVRRKQQPPPRTPLDQPVDIGTSLIQDMKAYLEGAGAEFCDITLLLDGHPRPAHKAILAARSSYFEAMFRSFMPEDGQVNISIGEMVPSRQAFESMLRYIYYGEVNMPPEDSLYLFAAPYYYGFYNNRLQAYCKQNLEMNVTVQNVLQILEAADKTQALDMKRHCLHIIVHQFTKVSKLPTLWSLSQQLLLDIIDSLASHISDKQCAELGADI
notes: Stably expressed in U87 cells by lentivirus; also called LZTR1-FLAG-R810W; LZTR1 RW; not shown: FLAG tag
binds: KIAA1217 | SKIV2L | RALGAPB
